From patent US7071214B2, “Compounds and compositions for delivering active agents” (Emisphere Technologies, Inc., priority 1997, dated 2006)
Like-named read-outs stand apart in the source and are kept apart here.

Design: species or system Rats
Details: rat, in vivo

Row | Mean peak serum interferon concentration (50 mg/kg) | Compound | Mean peak serum interferon concentration (1 mg/kg) | Mean peak serum interferon concentration (po, 1 mg/kg)
1 | 2611±695 | O=C(O)CCCc1ccc(NC(=O)COc2ccccc2)cc1 [Compound 9, 4-(4-(phenoxyacetyl)aminophenyl)butyric acid] |  | 
2 |  | interferon | 79±100 | 1951±1857
